Assay results published in article PMC4344526.

Key:
[1] = test system: Csy complex (Csy1-4 + crRNA, Type I-F) (Pseudomonas aeruginosa PA14); assay: EMSA; settings: EMSA: 20 mM HEPES pH 7.5, 100 mM KCl, 5% glycerol, 1 mM TCEP, 2 mM EDTA, 37 C, 15 min (competition 5 min), SPR: 20 mM HEPES pH 7.5, 100 mM KCl, 0.02%
[2] = test system: Csy complex (Csy1-4 + crRNA, Type I-F) (Pseudomonas aeruginosa PA14); assay: SPR; settings: ka 1.9e7 M-1 s-1, half-life 6.3 s, same as non-target, EMSA Kd >2 orders higher, EMSA: 20 mM HEPES pH 7.5, 100 mM KCl, 5% glycerol, 1 mM TCEP, 2 mM EDTA, 37 C, 15 min (competition 5 min), SPR: 20 mM HEPES pH 7.5, 100 mM KCl, 0.02%

In the case of dsDNA target, 7-deazaguanine PAM, the binding signal (fold increase in Kd vs N1) ([1]; both PAM guanines replaced by 7-deazaguanine) is reported as 120.

Substance “dsDNA target, T-A/T-A PAM, duplexed (EMSA)” has a binding signal (fold weaker vs N1) [1] of 100.

dsDNA target, inosine PAM gave a binding signal (fold increase in Kd vs N1) ([1]; both PAM guanines replaced by inosine) of over 1000.

In the case of dsDNA target, protospacer + G-C/G-C PAM, the Kd [1] is reported as 1 nM.

“dsDNA target, protospacer + T-A/T-A PAM (SPR)” was tested, and the Kd [2] was 6 nM.

ssDNA target, protospacer + GG PAM showed a Kd [1] of 0.5 nM.
